Reference: US20110280881A1, “NOVEL ANTI-HSP90 MONOCLONAL ANTIBODY” (RIKEN, priority 2010, published 2011)

B1: 6H8: anti-HSP90 monoclonal antibody produced by hybridoma FERM BP-11222; epitope … (antibody)
VH: QVQLQQSGPELVKPGASVRISCKASGYTFTSYYIHWVKQRPGQGLEWIGWIYPGNVNTKYNEKFKGKATLTADKSSSTAYMQLSSLTSEDSAVYFCARYGNYPFAYWGQGTLVTVSAAKTTAPSVYPLAPVCGDTTGSSVTLGCLVKGYF
VL: DVVMTQTPLSLPVSLGDQASISCRSSQSLVHSNGNTYLHWYLQKPGQSPKLLIYKVSNRFSGVPDRFSGSGSGTDFTLKISRVEAEDLGVYFCSQSTHVPPTFGGGTKLEIKRADAAPTVSIFPPSSEQLTSGGASVVCFLNNFYPKDINVKWKIDGS
B2: 6H8-OVA: high molecular weight conjugate of the 6H8 antibody and maleimide-activated OVA (conjugate)
VH: B1 VH
VL: B1 VL
chain: GSIGAASMEFCFDVFKELKVHHANENIFYCPIAIMSALAMVYLGAKDSTRTQINKVVRFDKLPGFGDSIEAQCGTSVNVHSSLRDILNQITKPNDVYSFSLASRLYAEERYPILPEYLQCVKELYRGGLEPINFQTAADQARELINSWVESQTNGIIRNVLQPSSVDSQTAMVLVNAIVFKGLWEKAFKDEDTQAMPFRVTEQESKPVQMMYQIGLFRVASMASEKMKILELPFASGTMSMLVLLPDEVSGLEQLESIINFEKLTEWTSSNVMEERKIKVYLPRMKMEEKYNLTSVLMAMGITDVFSSSANLSGISSAESLKISQAVHAAHAEINEAGREVVGSAEAGVDAASVSEEFRADHPFLFCIKHIATNAVLFFGRCVSP

What was measured:
[1] = test system: cell surface HSP90α and β; experiment: Immunoprecipitation of cell surface HSP90 from DC2.4 living cells; assay type: binding; details: DC2.4 living cells incubated with antibody on ice
Method: Mammalian HSP90 occurs in two isoforms: HSP90α and β. The following experiment was performed to determine whether not only HSP90α but also HSP90β is recognized by the antibody of the present invention. First, DC2.4 living cells were incubated along with an antibody on ice using 6H8, 2A6 or normal mouse IgG as a negative control. After being thoroughly washed to remove the unreacted antibody, the cells were lysed; the lysate was centrifuged at 10,000×g, and the resulting supernatant was incubated along with Protein G-Sepharose. The bound material was subjected to SDS-PAGE, after which blotting was performed using an anti-HSP90α antibody (SPS-771, Assay designs), an anti-HSP90β antibody (PB-118-P1, Neomarkers), or an antibody that recognizes both HSP90α and β (6B1C4, another antibody obtained in Example 1).

[2] = test system: OT-I CD8+ T cells; experiment: In vivo cross-presentation assay with free 6H8 antibody administered concurrently; parameters: species or system mouse; details: 72 hours
Method: (1) CFSE-labeled CD8^+ T cells of an OT-I/CD45.1 mouse were transferred to recipient mice from the tail vein, with 6H8-OVA [or 6H8 (F(ab′)2)—OVA, or OVA, or IgG2a-OVA] (0.3 μg) and the free 6H8 antibody [or 6H8 (F(ab′)2) or IgG2a] (30 μg) administered from the tail vein concurrently. (2) 72 hours later, the spleen was recovered from each mouse, and 2×10^6 splenocytes were stained with the PE-CD45.1 antibody in a 96-well round-bottomed plate for 30 minutes (while cooling on ice). (3) The CFSE intensity of CD45.1-positive cells (OT-I CD8^+ T cells) was determined using FACS Canto (BD).

[3] = test system: OT-I CD8+ T cells; experiment: In vivo proliferation of transplanted CFSE-labeled OT-I CD8+ T cells; parameters: species or system mouse; details: for proliferation of transplanted OT-I CD8+ T cells: 3 μg fractions 15 to 19 (mixture), three days
Method: First, CFSE-labeled OT-I CD8^+ T cells were generated as follows: A 10 mM CFSE stock solution in DMSO was diluted with PBS to prepare a 10 μM CFSE solution. A pellet of splenocytes prepared in a 15-ml tube was thoroughly loosened by tapping, after which 2 ml of the 10 μM CFSE solution was added thereto, and the mixture was gently vortexed. After being allowed to stand at room temperature for 5 minutes, the cells were washed twice with PBS (5 ml).
The CFSE-labeled OT-I CD8^+ T cells were transplanted to recipient mice from the tail vein. The recipient mice used were a wild-type B6 mouse (WT B6) and a TAP1-deficient mouse [TAP1 KO (purchased from Jackson Laboratory, U.S.A.)]. At the same time, 3 μg of the fractions 15 to 19 (mixture), 3 μg of the fraction 33, or a mixture of the fraction 33 (3 μg) and the free 6H8 antibody (3 μg) was injected. Three days later, splenocytes of each recipient mouse were collected and examined for proliferation of the transplanted cells.
A mixture of the fractions 15 to 19 containing the 6H8-OVA conjugate was injected into recipient mice at a series of doses, and the proliferation of OT-I CD8^+ T cells was examined in the same manner as the above. As a result, higher doses of the mixture more potently promoted the proliferation of CD8^+ T cells, although this effect was observed even at 0.1 μg (upper panel of FIG. 8C).

[4] = test system: OT-II CD4+ T cells; experiment: In vitro antigen presentation assay, DC2.4 cells with OT-II CD4+ T cells, IFNγ; assay type: cell-based, mouse; details: DC2.4 pulsed with series of doses, IFNγ secreted
Method: Next, DC2.4 cells were pulsed with a series of doses of 6H8-OVA (fractions 15 to 19) and free OVA (fraction 33) and incubated along with OT-I CD8^+ T cells and OT-II CD4^+ T cells [splenocytes of an OT-II mouse were recovered, and CD11b-positive cells were removed according to a standard protocol using BD IMag anti mouse CD11b magnetic particles DM (BD Biosciences Pharmingen, 558013); next, CD4-positive cells were purified according to a standard protocol using BD IMag anti mouse CD4 particles DM (BD Biosciences Pharmingen, 551539); the cells obtained were used as the OT-II CD4^+ T cells], and the amount of IFNγ secreted from T cells was measured, whereby the cross-presentation potential of 6H8-OVA was evaluated.

[5] = test system: MO5 (OVA-expressing melanoma); experiment: Pulmonary metastasis model with MO5 (OVA-expressing melanoma); assay type: in vivo, mouse; details: MO5 i.v.; 4 days later 6H8-OVA (10 mg) i.v.; counted 15 days later
Method: The pulmonary metastasis suppressing effect of 6H8-OVA was examined in a pulmonary metastasis model that is generated by transvenously administering MO5 (OVA-expressing melanoma) to a mouse. MO5 was administered to the mouse from a vein; 4 days later, PBS or 6H8-OVA (10 mg) was administered from a vein. 15 days later, pulmonary metastatic spots were counted.

[6] = test system: cytotoxic T cells specific for OVA257-264 epitope; experiment: Induction of OVA257-264-specific cytotoxic T cells by immunization (tetramer staining, 51Cr release); assay type: in vivo; details: 3 μg per mouse
Method: The mice were immunized twice at a 1-week interval. One week after second immunization, splenocytes were cultured in the presence of the OVA257-264 peptide for 5 days. The resulting cytotoxic T cells were monitored by tetramer staining [T cells were stained using T-Select H-2K^b OVA Tetramer-[…]-PE (MBL, TS5001-1, amount used=1 test/tube) at room temperature for 30 minutes], and standard ^51Cr release assay [2×10^6 each of mouse tumor cells E.G7, supplied by Dr. Michael Bevan at the University of Washington, U.S.A. (see Cell vol. 54:777-785, 1988), and EL4 (purchased from ATCC) were labeled with 50 microcuries of sodium ^51Cr, and used as the target cells; the cytotoxic T cells were added to 5×10^3 target cells as indicated in FIG. 8E; after cultivation for 4 hours, free ^51Cr in the supernatant was measured to calculate the cytotoxic activity; the EL4 cells with or without pulsing with the peptide OVA257-264 were prepared].

| Molecule | recognition of cell surface HSP90α and β on living cells (immunoprecipitation) [1] | effect of concurrently administered free antibody on OT-I CD8+ T cell proliferation reaction by 6H8-OVA ([2]; free antibody 30 μg with 6H8-OVA 0.3 μg) | proliferation of transplanted OT-I CD8+ T cells ([3]; TAP1-deficient mouse) | dose at which promotion of proliferation of OT-I CD8+ T cells was observed ([3]; series of doses injected into recipient mice) [µg] | proliferation of transplanted OT-I CD8+ T cells ([3]; wild-type B6 mouse) | antigen presentation to OT-II CD4+ T cells [4] | pulmonary metastatic spots [5] | proliferation reaction of adoptively transferred OT-I CD8+ T cells ([2]; 0.3 μg alone) | tetramer-positive cells after immunization ([6]; twice at 1-week interval, splenocytes cultured with OVA257-264 5 days) | cytotoxicity in 51Cr release assay ([6]; twice, target cells E.G7, EL4 with or without OVA257-264) |
| --- | --- | --- | --- | --- | --- | --- | --- | --- | --- | --- |
| B1 | recognized | remarkably enhanced |  |  |  |  |  |  |  |  |
| B2 |  |  | did not induce the proliferation of CD8^+ T cells at all | ≤ 0.1 | proliferation of CD8^+ T cells was confirmed | weak, although it was better than free OVA | almost no metastatic spots | slight proliferation reaction | produced tetramer-positive cells | cytotoxicity to OVA257-264 epitope was also observed |
